Data from the nanobody polyreactivity screen of Harvey et al. (2022).

Test: yeast display, Sf9 membrane polyspecificity reagent, FACS + sequencing; frameworks hold sequencing errors
How it was run: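 Galactose induction of a Saccharomyces cerevisiae BJ5465 synthetic nanobody display library ran 36–48 hours. The cells were then stained for 1 hour at 4 °C with 10% biotinylated, detergent-solubilized Sf9 membrane reagent, pulled down on streptavidin microbeads and FACS-sorted into low and high (top ~1%) gates on expression and reagent-binding fluorescence. Labels for polyreactivity follow the gate of origin.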

Row | Sequence | polyreactivity (PSR sort gate)
1 | QVQLVESGGGLVQAGGSLRLSCAASGLIFTYYAMGWYRQAPGKERELVAAINWSGGSTYYADSVKGRFTISRDNAKNTVYLQMNSLKPEDTAVYYCAAAYANYRFYYWGQGTQVTVSS | high polyreactivity
2 | QVQLQECGGGLVQAGGSLRLSCAASGNIFDAYIMGWYRQAPGKERELVASVTDGGSTNYADSVKGRFTISRDNAKNTVYLQMNSLKPEDTAVYYCAAIVYPDILTYFDYDYDYFYWGQGTQVTVGS | low polyreactivity
3 | QVQLVESGGGLVQAGGSLSLSCAASGSTMATYTMGWYRQAPGKERELVAAISFGGSTYYADSVKGRFTISRDNAKNTVYLQMNSLKPEDTAVYYCAVYGDSYWGAYYYSDGYWGQGTQVTVSS | low polyreactivity
4 | QDQLVESCGGLVQAGGSLRLSCASSGSTIYIYAMGWSRQAPVKERELVAAITWSGGSTYYADSVKGRFTISRDNAKNTVYLQMNSLNREDTAVYYFAAYLRYYRKEVGYSSMNYWGQGTQVTVSS | high polyreactivity
5 | QVQLVESGGGLVQAGGSLRLSCAASGFIFGLNAMGWYRPAPGKERELVAAIRSASSTNYADSVKGRFTISRDNAKNTVYLQMNSVKPEDTAVYYCAAEYVTYQQGFWGYDYWGQGTEVTVSS | low polyreactivity
6 | QVQLVVSGGGLVQAGGSLRLSCAASGGTFQHNTMGWYRQAPGKERELVAAIRWSDGSTYYADSVKGRFTISRDNAKTTVYLQMNSLKPEDTSVYYCNRAYTASYIPRVGFWGQGTQVTVSS | high polyreactivity
7 | QVQLVESGGGLVQEGGSLRLSCAASGNTLRVYAMGRYRQAPGTERELVAAISSSGGSTYYADSVKGRFTISRDNAKNTVYLQMYSLKPEDTAVYYCAKDNGPWFAYDYWGQGTQVTVSS | low polyreactivity
8 | QVQLVESGGGLVQAGGSLRLSCAASGRTFYRYAMGWYRQAPGKERELVAVITSGSRTKYADSVKGRFTISRDNAKNTVYLQMNSLKPEDTAVYYCAARGLALEGKSSGEYWGQGTQVTVSS | high polyreactivity
9 | QVQLVESGGGLVQAGGSLRLSCAASGFTFSTNAMGWYRQAPGKERELVAAISPDGGTYYADSVKGRFTISRDNAKNTVYLQMNSLKPEDTAVYYCAAVWGRGVWDLYDYWGQGTQVTVSS | low polyreactivity
10 | QVQHVESGGGLVQAGGSLRLSSAASGRTFYYNAMGWYRQAPGKERELVASITITDSTNYADSVKGRFTISRDNAKNTVYLQMNSLKPEDTAVYYCAKRGWGTSFYLSDYWGQGTQVTVSS | low polyreactivity
11 | QVQLVESGGGLVQAGGSLRLSCASSGFTFSRNVMGWYRQAPGKETELVADITLSGASTYYADSVKGRFTISRDNAKNPDYLQMNSLKPEDTAVYYCAADPYHWRWGWRHVYWGQGTQVTVSS | low polyreactivity
12 | QVQLVESGGGLVQAGGSLRLSCAASGLTFDKYVMGWYRQAPGKERELVAAITKGGGSTYYADSVKGRFTISRDNAKNTVYLQMNSLKPEDTAVYYCAVTLPLRYWGQGTQVTVSS | high polyreactivity
13 | QVQLVESWGGLDQAGGSLRLSCAASGSTFYAYAMGWYRPAPGKERELVAAISSDGTNYADSVKGRFTISRDNAKNTVYLQMNSLKPEDTAVYYCAADLLLYSSQDNDFWGQGTQVTVSS | low polyreactivity
14 | QVQLLESGGGLVQAGGSLRLSCAASGSIFVINVMGWYRQAPRKDRELVATITGGRSTKYADSVNGRFTISRDNAKNTVYLQMNSLKPEDTAVYYCNIQSKSRGVHDPSGYDYWGQGTQVTVSS | low polyreactivity
15 | QVQLVESGGGLVQAGGSLRLSCAASGITIYHNAMGWYRPAPGKERELVAAISWSGGSTYYADSVKGRFTISRDNANNTVYLQMNSLKPEDSAVYYCAAYQRVREGHDYEYWGQGTQVSVSS | high polyreactivity
16 | QVQLVESGGGLVQAGGSLRLRCAASGRTFSGYAMGWYRQAPGKERELVAAITSGGNTYYADSVKGRFTISRDNAKNTVYLQMNSLKPEDTAVYYCAVVDYLWLLQLWLSDYWGQGTQVTVSS | low polyreactivity
17 | QVQLVESWGGLVQAGGSLRLSCAASGGTFGNNDMGWYRQAPGKERELVAAIRSAGTTYYADSVKGRFTISRDNAKNTVYLQMNSLKPEDTAVYYCNADTTGYWSYGFQYYGEDYWGQGTQVTVSS | low polyreactivity
18 | QVQLVESGGGLVQAGGSLRLSCAASGFIFDYNTMGWYRQEPGKERELVADISGGGGRTYYADSVKGRFTISRDNAKNTVYLQMNSLKPEDTAVYYCAALGYYHHAWWISYDYWGQGTQVTVSS | low polyreactivity
19 | QVQLVESGGGLVQAGGSLRLSCAASGFIIEVNAMGWYRQAPGKERELVARIDWSGGSTYYADSVKWRFTISRDNAKNTVYLQMNILKPEYTEVYYCNAEWTYADPNEYGYWGQGTLVTVSS | low polyreactivity
20 | QVQLVESGGGLFQAGGSLRLSCAASGRIFDYNVMGWYRQAPGKERELVADINGSGGGTNYADSVKGRFTISRDNAKNTVYLQMNSLKPEDTAVYYCNADSYEYHVPYYDYRYDYWGQGTQVTVSS | low polyreactivity

Row | Sequence | polyreactivity (PSR sort gate)
21 | QVQLVESGGGLVQAGGSLRLSCAASGIILYVYGMGWYRQAPGKERELVATITWSDGGTYYADSVKGRFTISRDNAKNTVYLQMNSLKPEDTAVYYCNVVVVNGWVTTPGYDYWGQGTQVTVSS | low polyreactivity
22 | QVQLVESGGGLVQAGGSLRLSCAASGRTFGSNAMGWFIQAPGKERELVAAISSSDSTNYADSVKGRFTISRDNAKNTVYLQMNSLKPEETAVYYCNAGHPVRSPGYDYWGQGTQVTVSS | low polyreactivity
23 | QVQLVESGGGLVQAGGSLRLSCAASGLTFEVYAMGWYRQAPGKERELVAAISSGGGSTYYADSVKGRFTISRDNAKNTVYLQMNSLKPEDTAVYYCNAVAKLYYWRYDYWGQGTQVTVSS | low polyreactivity
24 | QVQLVESGGGLVQAGGSLRLSCAASGSILGYYVMGWYRQAPGKERELVAAISWSSGSTYYADSVKGRFTISRDNAKNTVYLQMNSLKPEDTAVYYCNAGGVYDEFNYWGQGTQVTVSS | low polyreactivity
25 | QVQLQESGGGLVQAGGSLRLSCAASGSITHYIFMGWYRQAPGKEREFVAGIGYGGTTNYADSVKGRFTISRDNAINTVYLQMNSLKPEDTAMYYCAAREATEFYLYYWGQGTQVTVSS | low polyreactivity
26 | QVQHVESGGGLVQAGGSLRLSCASSGITFPDYSMGWYRQAPGKERELVAGISSTGDSTYYADSVKGRFTISRDNGKKTVYLQMNSLKPEDTAVYYCNAAQERPIIILFSKYDYWGQGTQVTVSS | low polyreactivity
27 | QVQLVESGGGLVQAGGSLRLSCAASGRTFVRNAMGWYRQAPGKERELVASITSGGSTYYADSVKGRFTISRDNAKNTVYLQMNSLKAEDTAVYYCAKRTYTPVYGYYYWGQGTQVTVSS | high polyreactivity
28 | QVQLVESGGGLVQAGGSLRLSCAASGTFAIYAMGWYRQAPGKERELVAAIRWRGGRTYYADSVKGRFTISRDNAKNTVYFQMNSLKPEDTAVYYCAAEVPYYWWSPYRVDVGYWGQGTQVTVSS | high polyreactivity
29 | QVQLVESGGGLVQAGGSLRLSCPASGSIFWPNAMGWYRQAPGKERELVASINSGSGSTYYADSVKGRFTISRDNAKNTVYLQMNSLKPEDTAVYYCNAAGAYPYYSEDYYWGQGTQVTVSS | low polyreactivity
30 | QVQLVESGGGLVQAGGSLRLSCAASGNTFYVNVMGWYRQAPGKEREFVAAISTRGVSTSYADSVKGRFTISRDNAKNTVYLQMNSLKPEDTAVYYCAASFRRPQPKGTTYGYWGQGTQVTVSS | high polyreactivity
31 | QVQLVESGGGLVQAGGSLRLSCAASGRTFLGYAMGWYRQAPGKERELVAAISYSGSSTYYADSVKGRFTITRDNAKITVYLQMNSLKPEDTAVYYCAAQFFFLFDYWGQGTQVTLSS | low polyreactivity
32 | QVQLVESGGGLVQAGGSLRLSCAASGFILTSYAMGWYRKAPGKERELVAAISSRGGRTYYADSVKGRFTISRDNEKNTVYLQMNSLKPEDTAVYYCNAGVYVVGDFDYWGLGTQVTVSS | high polyreactivity
33 | QVQLVESGGGLVQAGGSLRLSCAASGYTFRGYAMGWYRQAPGKERELVAAISWSGGRTYYADSVKVRFTISRDNAKNTVYLQMNSLKPEDTAVYYCDAETHVGWPAKFDYWGQGTQVTVSS | high polyreactivity
34 | QVQLVESGGGLVQAGGSLRLSCAASGSTFYRYAMGWYRQAPGKERELVAAITWNGGSTYYADSVKGRFTISRDNAKNTVYLQMNSLKPEDTAVYYCNKVSRRDTYEYDYWGQGTQVTVSS | high polyreactivity
35 | QVQLVESGGGLVQAGGSLRLSCAASGFTFNIKTKGSDRQAPGKDRELVAAITSGGNSSYADSVKGRLTISRDNAKNTVYLQMNRVKPEDTAVYYCATEDFRTDTGMYYWGQGTQVTVSS | low polyreactivity
36 | QVQLVESGGGLVQAGGSLRLSCAASGSTFYIYAMGWYRQAPGKERELVAAIDWNDGSTYYADSVKARFTISRDNAKNTVYLQMNSLKPEDTAVYYCAAAIYIYRGGTYDYWGQGTQVTVSS | high polyreactivity
37 | QVQLVESGGGLVQAGGSLRLSCAASGSIFYNAMGWYRQAPGKERELVASISWSGGTSTYYADSVKGRFTISRDNAKNTVYLQMNSLKPEDTAVYYCAKASRYSSYWMYYWGQGTQVTVSS | high polyreactivity
38 | QVQLVESGGGLVQAGGSLRLSCAASGRTYDNTMGWYRKAHGKESELVAAISWSGGRTRYADSVKGRFTISRDNAKNTVYLQMNSLKPEDTAVYYCAAANGGYPPYRYVYGYYYWGQGTQVTVSS | high polyreactivity
39 | QVQLVESGGGLVQAGGSLRLSCAPSGSIFRYYAMGWYRQAPGKERELVAAISWSGTSTYYADSVKGRFTISRDNAKNTVYLQMNSLKPEDTAVYYCNKVIPANIRRSYDYWGQGTQVTVSS | high polyreactivity
40 | QVQLVESGGGLVQAGGSLRLSCAASGSISTYNDSGWYRQAPGKEREFVASITLSTGRTDYADSVKGRFTISRDNAKNTVYLQMNSLKPEETAVYVCSVRDYARKYLTSFDYWGQGTQVTVSS | high polyreactivity
